Test results: publication PMC8427231, “Mechanism of dimerization and structural features of human LI-cadherin” (The Journal of Biological Chemistry, 2021)

B1: human LI-cadherin EC1-4 [modified: N-glycans (four modelled on chain A, two on chain B of the crystal structure; sites not printed); N-glycans (four modelled on chain A, two on chain B of the crystal structure; sites not … (parent)
chain: QEGKFSGPLKPMTFSIYEGQEPSQIIFQFKANPPAVTFELTGETDNIFVIEREGLLYYNRALDRETRSTHNLQVAALDANGIIVEGPVPITIKVKDINDNRPTFLQSKYEGSVRQNSRPGKPFLYVNATDLDDPATPNGQLYYQIVIQLPMINNVMYFQINNKTGAISLTREGSQELNPAKNPSYNLVISVKDMGGQSENSFSDTTSVDIIVTENIWKAPKPVEMVENSTDPHPIKITQVRWNDPGAQYSLVDKEKLPRFPFSIDQEGDIYVTQPLDREEKDAYVFYAVAKDEYGKPLSYPLEIHVKVKDINDNPPTCPSPVTVFEVQENERLGNSIGTLTAHDRDEENTANSFLNYRIVEQTPKLPMDGLFLIQTYAGMLQLAKQSLKKQDTPQYNLTIEVSDKDFKTLCFVQINVID

Variants of: B1
Assay: SEC-MALS
Conditions: with itself; injected at 100 μM; read off a plot

Row | screen value [kDa] | Variant
1 | 52.4 | QEGKFSGPLKPMTFSIYEGQEPSQIIFQFKANPPAVTFELTGETDNIFVIEREGLLYYNRALDRETRSTHNLQVAALDANGIIVEGPVPITIKVKDINDNRPTFLQSKYEGSVRQNSRPGKPFLYVNATDLDDPATPNGQLYYQIVIQLPMINNVMYFQINNKTGAISLTREGSQELNPAKNPSYNLVISVKDMGGQSENSFSDTTSVDIIVTENIWKAPKPVEMVENSTDPHPIKITQVRWNDPGAQYSLVDKEKLPRFPFSIDQEGDIYVTQPLDREEKDAYVFYAVAKDEYGKPLSYPLEIHVKVKDINDNPPTCPSPVTVFEVQENERLGNSIGTLTAHDRDEEATANSFLNYRIVEQTPKLPMDGLFLIQTYAGMLQLAKQSLKKQDTPQYNLTIEVSDKDFKTLCFVQINVID [chain 1 N349A]
2 | 51.5 | QEGKFSGPLKPMTFSIYEGQEPSQIIFQFKANPPAVTFELTGETDNIFVIEREGLLYYNRALDRETRSTHNLQVAALDANGIIVEGPVPITIKVKDINDNRPTFLQSKYEGSVRQNSRPGKPFLYVNATDLDDPATPNGQLYYQIVIQLPMINNVMYFQINNKTGAISLTREGSQELNPAKNPSYNLAISVKDMGGQSENSFSDTTSVDIIVTENIWKAPKPVEMVENSTDPHPIKITQVRWNDPGAQYSLVDKEKLPRFPFSIDQEGDIYVTQPLDREEKDAYVFYAVAKDEYGKPLSYPLEIHVKVKDINDNPPTCPSPVTVFEVQENERLGNSIGTLTAHDRDEENTANSFLNYRIVEQTPKLPMDGLFLIQTYAGMLQLAKQSLKKQDTPQYNLTIEVSDKDFKTLCFVQINVID [chain 1 V188A]
3 | 53.6 | QEGKFSGPLKPMTFSIYEGQEPSQIIFQFKANPPAVTFELTGETDNIFVIEREGLLYYNRALDRETRSTHNLQVAALDANGIIVEGPVPITIKVKDINDNRPTFLQSKYEGSVRQNSRPGKPFLYVNATDLDDPATPNGQLYYQIVIQLPMINNVMYFQINNKTGAISLTREGSQELNPAKNPSYNLVISVKDMGGQSENSFSDTTSVDIIVTENIWKAPKPVEMVENSTDPHPIKITQVRWNDPGAQYSLVDKEKLPRFPFSIDQEGDIYVTQPLDREEKDAYVFYAVAKDEYGKPLSYPLEIHVKVKDINDNPPTCPSPVTVFEVQENERLGNSIGTLTAHDRDEENTANSFLNYRIVEQTPKLPMDGLFLIQTAAGMLQLAKQSLKKQDTPQYNLTIEVSDKDFKTLCFVQINVID [chain 1 Y377A]
4 | 52.7 | QEGKFSGPLKPMTFSIYEGQEPSQIIFQFKANPPAVTFELTGETDNIFVIEREGLLYYNRALDRETRSTHNLQVAALDANGIIVEGPVPITIKVKDINDNRPTFLQSKYEGSVRQNSRPGKPFLYVNATDLDDPATPNGQLYYQIVIQLPMINNVMYFQINNKTGAISLTREGSQELNPAKNPSYNLVISVKDMGGQSENSFSDTTSVDIIVTENIWKAPKPVEMVENSTDPHPIKITQVRWNDPGAQYSLVDKEKLPRFPFSIDQEGDIYVTQPLDREEKDAYVFYAVAKDEYGKPLSYPLEIHVKVKDINDNPPTCPSPVTVFEVQENERLGNSIGTLTAHDRDEENTANSFLNYRIVEQTPKLPMDGLFLIQTYAGMLALAKQSLKKQDTPQYNLTIEVSDKDFKTLCFVQINVID [chain 1 Q382A]

The next lines start with the variant.

Row | Variant | screen value [kDa]
5 | QEGKFSGPLKPMTFSIYEGQEPSQIIFQFKANPPAVTFELTGETDNIFVIEREGLLYYNRALDRETRSTHNLQVAALDANGIIVEGPVPITIKVKDINDNRPTFLQSKYEGSVRQNSRPGKPFLYVNATDLDDPATPNGQLYYQIVIQLPMINNVMYFQINNKTGAISLTREGSQELNPAKNPSYNLVISVKDMGGQSENSASDTTSVDIIVTENIWKAPKPVEMVENSTDPHPIKITQVRWNDPGAQYSLVDKEKLPRFPFSIDQEGDIYVTQPLDREEKDAYVFYAVAKDEYGKPLSYPLEIHVKVKDINDNPPTCPSPVTVFEVQENERLGNSIGTLTAHDRDEENTANSFLNYRIVEQTPKLPMDGLFLIQTYAGMLQLAKQSLKKQDTPQYNLTIEVSDKDFKTLCFVQINVID [chain 1 F202A] | 49.5
6 | QEGKFSGPLKPMTFSIYEGQEPSQIIFQFKANPPAVTFELTGETDNIFVIEREGLLYYNRALDRETRSTHNLQVAALDANGIIVEGPVPITIKVKDINDNRPTFLQSKYEGSVRQNSRPGKPFLYVNATDLDDPATPNGQLYYQIVIQLPMINNVMYFQINNKTGAISLTREGSQELNPAKNPSYNLVISVKDMGGQSENSFSDTTSVDIIVTENIWKAPKPVEMVENSTDPHPIKITQVRWNDPGAQYSLVDKEKLPRFPFSIDQEGDIYVTQPLDREEKDAYVFYAVAKDEYGKPLSYPLEIHVKVKDINDNPPTCPSPVTVFEVQENERAGNSIGTLTAHDRDEENTANSFLNYRIVEQTPKLPMDGLFLIQTYAGMLQLAKQSLKKQDTPQYNLTIEVSDKDFKTLCFVQINVID [chain 1 L333A] | 54.8
7 | QEGKFSGPLKPMTFSIYEGQEPSQIIFQFKANPPAVTFELTGETDNIFVIEREGLLYYNRALDRETRSTHNLQVAALDANGIIVEGPVPITIKVKDINDNRPTFLQSKYEGSVRQNSRPGKPFLYVNATDLDDPATPNGQLYYQIVIQLPMINNVMYFQINNKTGAISLTREGSQELNPAKNPSYNLVISVKDMGGQSENSFSDTTSVDIIVTENIWKAPKPVEMVENSTDPHPIKITQVRWNDPGAQYSLVDKEKLPRFPFSIDQEGDIYVTQPLDREEKDAYVFYAVAKDEYGKPLSYPLEIHVKVKDINDNPPTCPSPVTVFEVQENERLGNSIGTLTAHDRDEENTANSALNYRIVEQTPKLPMDGLFLIQTYAGMLQLAKQSLKKQDTPQYNLTIEVSDKDFKTLCFVQINVID [chain 1 F354A] | 55.1
8 | QEGKFSGPLKPMTFSIYEGQEPSQIIFQFKANPPAVTFELTGETDNIFVIEREGLLYYNRALDRETRSTHNLQVAALDANGIIVEGPVPITIKVKDINDNRPTFLQSKYEGSVRQNSRPGKPFLYVNATDLDDPATPNGQLYYQIVIQLPMINAVMYFQINNKTGAISLTREGSQELNPAKNPSYNLVISVKDMGGQSENSFSDTTSVDIIVTENIWKAPKPVEMVENSTDPHPIKITQVRWNDPGAQYSLVDKEKLPRFPFSIDQEGDIYVTQPLDREEKDAYVFYAVAKDEYGKPLSYPLEIHVKVKDINDNPPTCPSPVTVFEVQENERLGNSIGTLTAHDRDEENTANSFLNYRIVEQTPKLPMDGLFLIQTYAGMLQLAKQSLKKQDTPQYNLTIEVSDKDFKTLCFVQINVID [chain 1 N154A] | 53.1
9 | QEGKFSGPLKPMTFSIYEGQEPSQIIFQFKANPPAVTFELTGETDNIFVIEREGLLYYNRALDRETRSTHNLQVAALDANGIIVEGPVPITIKVKDINDNRPTFLQSKYEGSVRQNSRPGKPFLYVNATDLDDPATPNGQLYYQIVIQAPMINNVMYFQINNKTGAISLTREGSQELNPAKNPSYNLVISVKDMGGQSENSFSDTTSVDIIVTENIWKAPKPVEMVENSTDPHPIKITQVRWNDPGAQYSLVDKEKLPRFPFSIDQEGDIYVTQPLDREEKDAYVFYAVAKDEYGKPLSYPLEIHVKVKDINDNPPTCPSPVTVFEVQENERLGNSIGTLTAHDRDEENTANSFLNYRIVEQTPKLPMDGLFLIQTYAGMLQLAKQSLKKQDTPQYNLTIEVSDKDFKTLCFVQINVID [chain 1 L149A] | 51.1
10 | QEGKFSGPLKPMTFSIYEGQEPSQIIFQFKANPPAVTFELTGETDNIFVIEREGLLYYNRALDRETRSTHNLQVAALDANGIIVEGPVPITIKVKDINDNRPTFLQSKYEGSVRQNSRPGKPFLYVNATDLDDPATPNGQLYYQIVIQLPMINNVMYFQINNKTGAISLTREGSQELNPAKNPSYNLVISVKDMGGQSEASFSDTTSVDIIVTENIWKAPKPVEMVENSTDPHPIKITQVRWNDPGAQYSLVDKEKLPRFPFSIDQEGDIYVTQPLDREEKDAYVFYAVAKDEYGKPLSYPLEIHVKVKDINDNPPTCPSPVTVFEVQENERLGNSIGTLTAHDRDEENTANSFLNYRIVEQTPKLPMDGLFLIQTYAGMLQLAKQSLKKQDTPQYNLTIEVSDKDFKTLCFVQINVID [chain 1 N200A] | 52.2
11 | QEGKFSGPLKPMTFSIYEGQEPSQIIFQFKANPPAVTFELTGETDNIFVIEREGLLYYNRALDRETRSTHNLQVAALDANGIIVEGPVPITIKVKDINDNRPTFLQSKYEGSVRQNSRPGKPFLYVNATDLDDPATPNGQLYYQIVAQLPMINNVMYFQINNKTGAISLTREGSQELNPAKNPSYNLVISVKDMGGQSENSFSDTTSVDIIVTENIWKAPKPVEMVENSTDPHPIKITQVRWNDPGAQYSLVDKEKLPRFPFSIDQEGDIYVTQPLDREEKDAYVFYAVAKDEYGKPLSYPLEIHVKVKDINDNPPTCPSPVTVFEVQENERLGNSIGTLTAHDRDEENTANSFLNYRIVEQTPKLPMDGLFLIQTYAGMLQLAKQSLKKQDTPQYNLTIEVSDKDFKTLCFVQINVID [chain 1 I147A] | 50.5

Same assay, conditions: with itself; injected at 50 μM; read off a plot

Row | screen value [kDa] | Variant
12 | 58 | QEGKFSGPLKPMTFSIYEGQEPSQIIFQFKANPPAVTFELTGETDNIFVIEREGLLYYNRALDRETRSTHNLQVAALDANGIIVEGPVPITIKVKDINDNRPTFLQSKYEGSVRQNSRPGKPFLYVNATDLDDPATPNGQLYYQIVIQLPMINNVMYFQINNKTGAISLTREGSQELNPAKNPSYNLVISVKDMGGQSENSASDTTSVDIIVTENIWKAPKPVEMVENSTDPHPIKITQVRWNDPGAQYSLVDKEKLPRFPFSIDQEGDIYVTQPLDREEKDAYVFYAVAKDEYGKPLSYPLEIHVKVKDINDNPPTCPSPVTVFEVQENERLGNSIGTLTAHDRDEENTANSFLNYRIVEQTPKLPMDGLFLIQTYAGMLQLAKQSLKKQDTPQYNLTIEVSDKDFKTLCFVQINVID [chain 1 F202A]
